ABC (antibody binding capacity) and MFI (arbitrary units) data for 1 substance are collected here from US20140322726A1.

In test [1] the target is endogenous human asparagine synthetase (ASNS) in leukemia cells (human) (UniProt P08243). Briefly: flow cytometry with QIFIKIT calibration beads, K562 cells, control antibody at 3 ug/ml.
Test [2] has the same target. The experiment in a line: flow cytometry on fixed, permeabilised K562 cells (high ASNS), control antibody at 3 ug/ml. In general terms: Flow cytometry measures light scatter and fluorescence of single cells or particles in a stream.
Test [3] has the same target. The experiment in a line: flow cytometry on fixed, permeabilised MOLT-4 cells (extremely low ASNS), control antibody at 3 ug/ml.
For test [4] the target is unchanged. Briefly: flow cytometry with QIFIKIT calibration beads, MOLT-4 cells, control antibody at 3 ug/ml.

Sequence of UniProt P08243 (P08243 2-561): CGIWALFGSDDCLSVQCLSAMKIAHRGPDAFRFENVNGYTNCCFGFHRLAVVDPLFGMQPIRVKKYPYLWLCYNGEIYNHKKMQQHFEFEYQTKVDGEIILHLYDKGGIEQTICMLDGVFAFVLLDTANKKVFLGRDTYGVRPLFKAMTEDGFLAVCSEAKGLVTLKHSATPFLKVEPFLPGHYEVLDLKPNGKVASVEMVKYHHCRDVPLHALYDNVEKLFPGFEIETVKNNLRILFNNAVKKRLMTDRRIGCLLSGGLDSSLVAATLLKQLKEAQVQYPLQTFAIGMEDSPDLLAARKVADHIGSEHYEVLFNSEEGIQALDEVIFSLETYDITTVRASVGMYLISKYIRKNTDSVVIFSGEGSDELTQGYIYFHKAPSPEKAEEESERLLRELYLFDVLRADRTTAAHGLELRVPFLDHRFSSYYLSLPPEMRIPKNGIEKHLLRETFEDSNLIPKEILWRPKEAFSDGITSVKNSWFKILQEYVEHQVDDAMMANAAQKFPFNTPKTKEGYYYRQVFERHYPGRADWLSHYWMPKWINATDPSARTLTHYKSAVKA

In the case of “control mouse IgG (3423, 2AHB12; Institute of Immunology) (antibody)”, the ABC (antibody binding capacity) in test [1] came to 874 units/cell; in test [4], 631 units/cell. In addition, the MFI (arbitrary units) came to 4.56 in test [2] and 3.17 in test [3].
